According to patent US9260500B2, “Peptide and use thereof” (Takeda Pharmaceutical Company Limited, priority 2009, dated 2016):
Non-standard residues stand in square brackets, D forms with d. No end group written: not given here. *: point of attachment. Tyr(3-F) = N[C@@H](Cc1ccc(O)c(F)c1)C(=O)O; Phe(4-NH2) = Nc1ccc(C[C@H](N)C(=O)O)cc1; Phe(4-F) = N[C@@H](Cc1ccc(F)cc1)C(=O)O; Phe(2-Me) = Cc1ccccc1C[C@H](N)C(=O)O; 4Pal = N[C@@H](Cc1ccncc1)C(=O)O; dHyp = O=C(O)[C@H]1C[C@H](O)CN1; Cha = N[C@@H](CC1CCCCC1)C(=O)O; Gly(N-CH2CH2OH) = O=C(O)CNCCO; dIva = CC[C@@](C)(N)C(=O)O; Isobutyryl = CC(C)C(=O)*; Nle = CCCC[C@H](N)C(=O)O; Abu = CC[C@H](N)C(=O)O; Aib = CC(C)(N)C(=O)O; Inp = O=C(O)C1CCNCC1; Bz = O=C(c1ccccc1)*; βAla = NCCC(=O)O

How the values were obtained:
human Y2 receptor [1] = biological target: T1, human Y2 receptor (Homo sapiens, UniProt P49146); assay: Receptor Binding Assay (RBA) for Human Y2, [125I]-PYY displacement on hY2R/CHO membrane fraction; conditions: IC50 of test compound/IC50 of PYY(3-36) (PYY(3-36) taken as 1)
T1 construct: expressed in transfected cells; membrane fraction
T1 sequence (P49146 1-381): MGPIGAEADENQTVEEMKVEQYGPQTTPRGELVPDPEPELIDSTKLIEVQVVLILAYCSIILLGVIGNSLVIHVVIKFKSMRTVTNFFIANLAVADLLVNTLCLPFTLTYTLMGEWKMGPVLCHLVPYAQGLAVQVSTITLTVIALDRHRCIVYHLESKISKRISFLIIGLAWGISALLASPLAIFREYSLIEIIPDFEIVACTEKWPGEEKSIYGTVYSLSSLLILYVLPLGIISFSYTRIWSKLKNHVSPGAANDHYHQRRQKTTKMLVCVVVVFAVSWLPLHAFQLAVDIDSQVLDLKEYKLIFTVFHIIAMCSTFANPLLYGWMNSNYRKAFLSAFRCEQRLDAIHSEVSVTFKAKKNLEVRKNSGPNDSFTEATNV
Method in brief: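 hY2R stably expressed in CHO/dhfr− cells; membrane fraction prepared from cells disrupted in 10 mM NaHCO3, 5 mM EDTA buffer with protease inhibitors. Binding read as displacement of [125I]-PYY.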

human Y2 receptor [2] = biological target: T1, human Y2 receptor; assay: Human Y2 Receptor G Protein Binding Assay (GBA), [35S]GTPγS; assay type: biochemical; conditions: EC50 of test compound/EC50 of PYY(3-36) (PYY3-36 taken as 1), hY2R/CHO membrane fraction
Method in brief: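 Agonism measured as [35S]GTPγS binding, read by GF/C filtration and scintillation counting after 120 min at room temperature, using human Y2 membranes at 1 μg protein/mL in pH 7.4 Tris/MgCl2/NaCl/GDP buffer. Compound serially diluted 100 μM–1 nM; EC50 normalized to PYY(3-36) (ratio = compound/PYY).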

| Substance | RBA IC50 Ratio (human Y2 receptor [1]) | GBA EC50 Ratio (human Y2 receptor [2]) |
| --- | --- | --- |
| Isobutanoyl-[Abu26, Cha27,36, Phe(4F)28, Aib31]-PYY(25-36) (Isobutyryl-R[Abu][Cha][Phe(4-F)]NL[Aib]TRQR[Cha]-NH2; SMILES CC[C@H](NC(=O)[C@H](CCCNC(=N)N)NC(=O)C(C)C)C(=O)N[C@@H](CC1CCCCC1)C(=O)N[C@@H](Cc1ccc(F)cc1)C(=O)N[C@@H](CC(N)=O)C(=O)N[C@@H](CC(C)C)C(=O)NC(C)(C)C(=O)N[C@H](C(=O)N[C@@H](CCCNC(=N)N)C(=O)N[C@@H](CCC(N)=O)C(=O)N[C@@H](CCCNC(=N)N)C(=O)N[C@@H](CC1CCCCC1)C(N)=O)[C@@H](C)O) [compound No. 79] | 23 | 20 |
| Isobutanoyl-[Asp23, D-Hyp24, Cha27,28,36, Aib31]-PYY(23-36) (Isobutyryl-D[dHyp]RH[Cha][Cha]NL[Aib]TRQR[Cha]-NH2; SMILES CC(C)C[C@H](NC(=O)[C@H](CC(N)=O)NC(=O)[C@H](CC1CCCCC1)NC(=O)[C@H](CC1CCCCC1)NC(=O)[C@H](Cc1c[nH]cn1)NC(=O)[C@H](CCCNC(=N)N)NC(=O)[C@H]1C[C@H](O)CN1C(=O)[C@H](CC(=O)O)NC(=O)C(C)C)C(=O)NC(C)(C)C(=O)N[C@H](C(=O)N[C@@H](CCCNC(=N)N)C(=O)N[C@@H](CCC(N)=O)C(=O)N[C@@H](CCCNC(=N)N)C(=O)N[C@@H](CC1CCCCC1)C(N)=O)[C@@H](C)O) [compound No. 127] | 2.6 | 3.1 |
| Isobutanoyl-[D-Pro24, Pya(4)26, Cha27,36, Aib28,31, Lys30]-PYY(23-36) (Isobutyryl-S[dP]R[4Pal][Cha][Aib]NK[Aib]TRQR[Cha]-NH2; SMILES CC(C)C(=O)N[C@@H](CO)C(=O)N1CCC[C@@H]1C(=O)N[C@@H](CCCNC(=N)N)C(=O)N[C@@H](Cc1ccncc1)C(=O)N[C@@H](CC1CCCCC1)C(=O)NC(C)(C)C(=O)N[C@@H](CC(N)=O)C(=O)N[C@@H](CCCCN)C(=O)NC(C)(C)C(=O)N[C@H](C(=O)N[C@@H](CCCNC(=N)N)C(=O)N[C@@H](CCC(N)=O)C(=O)N[C@@H](CCCNC(=N)N)C(=O)N[C@@H](CC1CCCCC1)C(N)=O)[C@@H](C)O) [compound No. 212] | 0.79 | 0.89 |
| [N(2-hydroxyethyl)Gly23, D-Pro24, Cha27,28,36, Aib31]-PYY(23-36) ([Gly(N-CH2CH2OH)][dP]RH[Cha][Cha]NL[Aib]TRQR[Cha]-NH2; N-terminus assumed; SMILES CC(C)C[C@H](NC(=O)[C@H](CC(N)=O)NC(=O)[C@H](CC1CCCCC1)NC(=O)[C@H](CC1CCCCC1)NC(=O)[C@H](Cc1c[nH]cn1)NC(=O)[C@H](CCCNC(=N)N)NC(=O)[C@H]1CCCN1C(=O)CNCCO)C(=O)NC(C)(C)C(=O)N[C@H](C(=O)N[C@@H](CCCNC(=N)N)C(=O)N[C@@H](CCC(N)=O)C(=O)N[C@@H](CCCNC(=N)N)C(=O)N[C@@H](CC1CCCCC1)C(N)=O)[C@@H](C)O) [compound No. 134] | 2.0 | 1.2 |
| Benzoyl-[Cha27,36, Ile28,31, Phe(4NH2)30]-PYY(25-36) (Bz-RH[Cha]IN[Phe(4-NH2)]ITRQR[Cha]-NH2; SMILES CC[C@H](C)[C@H](NC(=O)[C@H](CC1CCCCC1)NC(=O)[C@H](Cc1c[nH]cn1)NC(=O)[C@H](CCCNC(=N)N)NC(=O)c1ccccc1)C(=O)N[C@@H](CC(N)=O)C(=O)N[C@@H](Cc1ccc(N)cc1)C(=O)N[C@H](C(=O)N[C@H](C(=O)N[C@@H](CCCNC(=N)N)C(=O)N[C@@H](CCC(N)=O)C(=O)N[C@@H](CCCNC(=N)N)C(=O)N[C@@H](CC1CCCCC1)C(N)=O)[C@@H](C)O)[C@@H](C)CC) [compound No. 73] | 12 | 6.6 |
| Ac-[D-Pro24, Pya(4)26, Cha27,36, Aib28,31, Lys(Ac)30]-PYY(23-36) [compound No. 278] | 0.97 | 1.1 |
| N-4-Pyridiniyl-[Pic(4)23, D-Pro24, Cha27,28,36, Aib31]-PYY(23-36) ([Inp][dP]RH[Cha][Cha]NL[Aib]TRQR[Cha]-NH2; not fully specified (N-terminus); printed as N-4-Pyridiniyl-[Pic(4)23, D-Pro24, Cha27,28,36, Aib31]-PYY(23-36)) [compound No. 125] | 4 | 3.4 |

Now from value to substance:

| RBA IC50 Ratio (human Y2 receptor [1]) | GBA EC50 Ratio (human Y2 receptor [2]) | Substance |
| --- | --- | --- |
| 26 | 20 | Isobutanoyl-[Abu26, Cha27,28, Aib31, Tyr(3F)36]-PYY(25-36) (Isobutyryl-R[Abu][Cha][Cha]NL[Aib]TRQR[Tyr(3-F)]-NH2; SMILES CC[C@H](NC(=O)[C@H](CCCNC(=N)N)NC(=O)C(C)C)C(=O)N[C@@H](CC1CCCCC1)C(=O)N[C@@H](CC1CCCCC1)C(=O)N[C@@H](CC(N)=O)C(=O)N[C@@H](CC(C)C)C(=O)NC(C)(C)C(=O)N[C@H](C(=O)N[C@@H](CCCNC(=N)N)C(=O)N[C@@H](CCC(N)=O)C(=O)N[C@@H](CCCNC(=N)N)C(=O)N[C@@H](Cc1ccc(O)c(F)c1)C(N)=O)[C@@H](C)O) [compound No. 87] |
| 0.82 | 1.4 | Ac-[D-Pro24, Har25, Pya(4)26, Cha27,36, Aib28,31, Lys30]-PYY(23-36) [compound No. 289] |
| 0.96 | 1.4 | Ac-[D-Pro24, Pya(4)26, Cha27,36, Aib28,31, Nle30]-PYY(23-36) (Ac-S[dP]R[4Pal][Cha][Aib]N[Nle][Aib]TRQR[Cha]-NH2; SMILES CCCC[C@H](NC(=O)[C@H](CC(N)=O)NC(=O)C(C)(C)NC(=O)[C@H](CC1CCCCC1)NC(=O)[C@H](Cc1ccncc1)NC(=O)[C@H](CCCNC(=N)N)NC(=O)[C@H]1CCCN1C(=O)[C@H](CO)NC(C)=O)C(=O)NC(C)(C)C(=O)N[C@H](C(=O)N[C@@H](CCCNC(=N)N)C(=O)N[C@@H](CCC(N)=O)C(=O)N[C@@H](CCCNC(=N)N)C(=O)N[C@@H](CC1CCCCC1)C(N)=O)[C@@H](C)O) [compound No. 267] |
| 24 | 11 | Ac-[D-Pro24, Aib25,28,31, Cha27,36, Lys30]-PYY(23-36) (Ac-S[dP][Aib]H[Cha][Aib]NK[Aib]TRQR[Cha]-NH2; SMILES CC(=O)N[C@@H](CO)C(=O)N1CCC[C@@H]1C(=O)NC(C)(C)C(=O)N[C@@H](Cc1c[nH]cn1)C(=O)N[C@@H](CC1CCCCC1)C(=O)NC(C)(C)C(=O)N[C@@H](CC(N)=O)C(=O)N[C@@H](CCCCN)C(=O)NC(C)(C)C(=O)N[C@H](C(=O)N[C@@H](CCCNC(=N)N)C(=O)N[C@@H](CCC(N)=O)C(=O)N[C@@H](CCCNC(=N)N)C(=O)N[C@@H](CC1CCCCC1)C(N)=O)[C@@H](C)O) [compound No. 238] |
| 1.0 | 0.98 | Ac-[D-Pro24, Pya(4)26, Cha27, Aib28,31, Lys30, Phe(2Me)36]-PYY(23-36) (Ac-S[dP]R[4Pal][Cha][Aib]NK[Aib]TRQR[Phe(2-Me)]-NH2; SMILES CC(=O)N[C@@H](CO)C(=O)N1CCC[C@@H]1C(=O)N[C@@H](CCCNC(=N)N)C(=O)N[C@@H](Cc1ccncc1)C(=O)N[C@@H](CC1CCCCC1)C(=O)NC(C)(C)C(=O)N[C@@H](CC(N)=O)C(=O)N[C@@H](CCCCN)C(=O)NC(C)(C)C(=O)N[C@H](C(=O)N[C@@H](CCCNC(=N)N)C(=O)N[C@@H](CCC(N)=O)C(=O)N[C@@H](CCCNC(=N)N)C(=O)N[C@@H](Cc1ccccc1C)C(N)=O)[C@@H](C)O) [compound No. 257] |
| 71 | 37 | Ac-[D-Pro24, Cha27,28,36, D-Iva29, Aib31]-PYY(23-36) (Ac-S[dP]RH[Cha][Cha][dIva]L[Aib]TRQR[Cha]-NH2; SMILES CC[C@@](C)(NC(=O)[C@H](CC1CCCCC1)NC(=O)[C@H](CC1CCCCC1)NC(=O)[C@H](Cc1c[nH]cn1)NC(=O)[C@H](CCCNC(=N)N)NC(=O)[C@H]1CCCN1C(=O)[C@H](CO)NC(C)=O)C(=O)N[C@@H](CC(C)C)C(=O)NC(C)(C)C(=O)N[C@H](C(=O)N[C@@H](CCCNC(=N)N)C(=O)N[C@@H](CCC(N)=O)C(=O)N[C@@H](CCCNC(=N)N)C(=O)N[C@@H](CC1CCCCC1)C(N)=O)[C@@H](C)O) [compound No. 179] |
| 1.7 | 1.2 | [βAla23, D-Pro24, Cha27,28,36, Aib31]-PYY(23-36) ([βAla][dP]RH[Cha][Cha]NL[Aib]TRQR[Cha]-NH2; N-terminus assumed; SMILES CC(C)C[C@H](NC(=O)[C@H](CC(N)=O)NC(=O)[C@H](CC1CCCCC1)NC(=O)[C@H](CC1CCCCC1)NC(=O)[C@H](Cc1c[nH]cn1)NC(=O)[C@H](CCCNC(=N)N)NC(=O)[C@H]1CCCN1C(=O)CCN)C(=O)NC(C)(C)C(=O)N[C@H](C(=O)N[C@@H](CCCNC(=N)N)C(=O)N[C@@H](CCC(N)=O)C(=O)N[C@@H](CCCNC(=N)N)C(=O)N[C@@H](CC1CCCCC1)C(N)=O)[C@@H](C)O) [compound No. 116] |
